Measured values: patent US20240317868A1 (Boehringer Ingelheim, published 2024)
Where two headings read alike, the source gives them in different places.

How the values were obtained:
[1] = molecular target: T1, human IL1RAP (human, UniProt Q9NPH3 21-367, limits assumed, biotinylated in the ELISA screens (site not stated)); test: ELISA: Fab constant (4 nM) captured on Fd coat (67 nM), Biot-hu IL1RAP titrated from 6.8 nM (the concentration axis is the antigen), SA-HRP 1:4000
T1 construct: also called huIL1RAP; IL1RAP antigen
T1 sequence (looked up): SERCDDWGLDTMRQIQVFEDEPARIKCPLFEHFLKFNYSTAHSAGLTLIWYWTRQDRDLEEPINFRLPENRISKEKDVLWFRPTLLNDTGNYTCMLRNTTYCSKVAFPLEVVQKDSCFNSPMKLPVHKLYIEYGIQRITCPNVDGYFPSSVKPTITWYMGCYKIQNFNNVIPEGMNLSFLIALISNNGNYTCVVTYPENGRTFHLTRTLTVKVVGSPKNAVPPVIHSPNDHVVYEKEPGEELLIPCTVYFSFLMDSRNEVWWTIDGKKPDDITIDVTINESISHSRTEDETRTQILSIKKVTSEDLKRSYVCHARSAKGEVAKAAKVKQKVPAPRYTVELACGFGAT

[2] = molecular target: T1, human IL1RAP; test: as above; remark: listed apart in the source
[3] = molecular target: T1, human IL1RAP; test: hKD, method not stated

B1: IL1RAP G011 chimeric Fab (Fab, V domains shown)
VH: QVHLQQSGPELVRPGTSVKISCEASGYIFLTYWMNWVKQRPGQGLEWIGQIFPASDSTYYNEMFKDKARFTVDKSSSTAYMQFSSLTSEDTAVYFCARSGPYSYYAGGYALDYWGQGTSVTVSS
VL: DIQMTQSPASLSASVGETVTITCRTSENINSYLAWYQQKQGKSPQLLVHYAKTLAEGVPSRFSGSGSGTQFSLKINSLKPEDFGSYYCQHHYGTSLTFGAGTKLELK
notes: Mouse VK and VH fused to human Ck and CH1; expressed in E. coli (periplasmic extract or supernatant); also called mouse Fab; chimeric parent anti-IL1RAP GO11 Fab
- EC50 (read off the curve) [1]: ~0.4 nM
- EC50 (read off the curve) [2]: ~0.4 nM

B2: CAN04 (antibody, V domains shown)
VH: QVQLQQSGPELLKPGASVKISCKASGYAFSSSWMNWVKQRPGKGLEWIGRIYPGDGNTHYSGKFKGKATLTADKSSSIAYMQLSSLTSEDSAVYFCGEGYLDPMDYWGQGTSVTVSS
VL: DIQMTQTTSSLSASLGDRVTISCSASQGINNYLNWYQQKPDGTVKLLIHYTSGLHAGVPSRFSGSGSGTDYSLTISNLEPEDVATYYCQQYSILPWTFGGGTKLEIKR
- Kd [3]: 0.2 nM
